Assay results published in patent US20250011363A1, “OPTIMIZED SHORTENED PEPTIDE THAT BINDS TO ACETYLCHOLINE RECEPTOR, AND USE THEREOF” (SKINMED CO., LTD., priority 2021, published 2025).

What follows are binders tested against acetylcholine receptor (assay: SPR, receptor immobilised on chip, peptide at 10 uM).

Row | Binding affinity (RU) | Binder
1 | 27 | KNWARR [6mer-2-986]
2 | 30 | REMKRK [6mer-2-977]
3 | 35 | RTSNKK [6mer-2-967]
4 | 29 | RHDVKK [6mer-2-993]
5 | 38 | KKTMKK [6mer-2-975]
6 | 38 | KAMFRR [6mer-2-972]
7 | 41 | KCPIKK [6mer-2-973]
8 | 37 | RTWHRR [6mer-2-983]
9 | 41 | KEDAKR [6mer-2-966]
10 | 41 | KYCIKK [6mer-2-994]
11 | 33 | KATHKR [6mer-2-969]
12 | 26 | RTTGKK [6mer-2-976]
13 | 22 | KAHNKR [6mer-2-989]
14 | 38 | RMHAKK [6mer-2-982]
15 | 29 | KEMFRK [6mer-2-971]
16 | 28 | KEPHRR [6mer-2-978]

Row | Binding affinity (RU) | Binder
17 | 38 | KFWEKK [6mer-2-995]
18 | 22 | KKAFKK [6mer-2-979]
19 | 43 | KDMWKK [6mer-2-984]
20 | 34 | REMNKR [6mer-2-985]
21 | 40 | RHDARK [6mer-2-996]
22 | 41 | RKKMKR [6mer-2-990]
23 | 32 | RCEIRK [6mer-2-981]
24 | 27 | KDDVRR [6mer-2-970]
25 | 41 | KMCEKK [6mer-2-988]
26 | 33 | RMHFRR [6mer-2-992]
27 | 34 | KESGKR [6mer-2-980]
28 | 38 | RFDDRR [6mer-2-974]
29 | 39 | RHWEKK [6mer-2-968]
30 | 30 | KCHFRR [6mer-2-991]
31 | 22 | RCHPKK [6mer-2-987]
